# Reference: IntAct's records for PubMed 12845325
# B1: Integrin alpha-L (Homo sapiens), P20701 (parent)
# chain: MKDSCITVMAMALLSGFFFFAPASSYNLDVRGARSFSPPRAGRHFGYRVLQVGNGVIVGAPGEGNSTGSLYQCQSGTGHCLPVTLRGSNYTSKYLGMTLATDPTDGSILACDPGLSRTCDQNTYLSGLCYLFRQNLQGPMLQGRPGFQECIKGNVDLVFLFDGSMSLQPDEFQKILDFMKDVMKKLSNTSYQFAAVQFSTSYKTEFDFSDYVKRKDPDALLKHVKHMLLLTNTFGAINYVATEVFREELGARPDATKVLIIITDGEATDSGNIDAAKDIIRYIIGIGKHFQTKESQETLHKFASKPASEFVKILDTFEKLKDLFTELQKKIYVIEGTSKQDLTSFNMELSSSGISADLSRGHAVVGAVGAKDWAGGFLDLKADLQDDTFIGNEPLTPEVRAGYLGYTVTWLPSRQKTSLLASGAPRYQHMGRVLLFQEPQGGGHWSQVQTIHGTQIGSYFGGELCGVDVDQDGETELLLIGAPLFYGEQRGGRVFIYQRRQLGFEEVSELQGDPGYPLGRFGEAITALTDINGDGLVDVAVGAPLEEQGAVYIFNGRHGGLSPQPSQRIEGTQVLSGIQWFGRSIHGVKDLEGDGLADVAVGAESQMIVLSSRPVVDMVTLMSFSPAEIPVHEVECSYSTSNKMKEGVNITICFQIKSLIPQFQGRLVANLTYTLQLDGHRTRRRGLFPGGRHELRRNIAVTTSMSCTDFSFHFPVCVQDLISPINVSLNFSLWEEEGTPRDQRAQGKDIPPILRPSLHSETWEIPFEKNCGEDKKCEANLRVSFSPARSRALRLTAFASLSVELSLSNLEEDAYWVQLDLHFPPGLSFRKVEMLKPHSQIPVSCEELPEESRLLSRALSCNVSSPIFKAGHSVALQMMFNTLVNSSWGDSVELHANVTCNNEDSDLLEDNSATTIIPILYPINILIQDQEDSTLYVSFTPKGPKIHQVKHMYQVRIQPSIHDHNIPTLEAVVGVPQPPSEGPITHQWSVQMEPPVPCHYEDLERLPDAAEPCLPGALFRCPVVFRQEILVQVIGTLELVGEIEASSMFSLCSSLSISFNSSKHFHLYGSNASLAQVVMKVDVVYEKQMLYLYVLSGIGGLLLLLLIFIVLYKVGFFKRNLKEKMEAGRGVPNGIPAEDSEQLASGQEAGDPGCLKPLHEKDSESGGGKD
# partner: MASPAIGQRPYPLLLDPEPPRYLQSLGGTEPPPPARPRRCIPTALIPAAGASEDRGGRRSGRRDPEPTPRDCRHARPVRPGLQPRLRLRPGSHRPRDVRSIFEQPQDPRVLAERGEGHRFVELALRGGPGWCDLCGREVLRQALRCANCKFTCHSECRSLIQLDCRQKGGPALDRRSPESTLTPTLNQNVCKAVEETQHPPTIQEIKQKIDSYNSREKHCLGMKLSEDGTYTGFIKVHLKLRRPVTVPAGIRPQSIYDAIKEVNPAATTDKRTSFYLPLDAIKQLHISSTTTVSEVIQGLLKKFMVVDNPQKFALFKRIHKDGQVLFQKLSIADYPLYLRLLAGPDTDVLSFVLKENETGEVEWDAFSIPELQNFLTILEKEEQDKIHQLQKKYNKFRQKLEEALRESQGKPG
# Variants of: B1
# Details: with rasf5_mouse Rassf5, Q5EBH1
row,effect of a mutation on the interaction,Variant
1,disrupting interaction,K1122A;K1124A
